# Measurements taken from patent US20090023658A1 (TOSHIKAZU NAKAMURA, published 2009).
# B1: HGF/NK4 (PyrGlu32-Val478 region of human HGF, obtained by elastase digestion of recombinant HGF) (ligand)
# chain: ERKRRNTIHEFKKSAKTTLIKIDPALKIKTKKVNTADQCANRCTRNKGLPFTCKAFVFDKARKQCLWFPFNSMSSGVKKEFGHEFDLYENKDYIRNCIIGKGRSYKGTVSITKSGIKCQPWSSMIPHEHSFLPSSYRGKDLQENYCRNPRGEEGGPWCFTSNPEVRYEVCDIPQCSEVECMTCNGESYRGLMDHTESGKICQRWDHQTPHRHKFLPERYPDKGFDDNYCRNPDGQPRPWCYTLDPHTRWEYCAIKTCADNTMNDTDVPLETTECIQGQGEGYRGTVNTIWNGIPCQRWDSQYPHEHDMTPENFKCKDLRENYCRNPDGSESPWCFTTDPNIRVGYCSQIPNCDMSHGQDCYRGNGKNYMGNLSQTRSGLTCSMWDKNMEDLHRHIFWEPDASKLNENYCRNPDDDAHGPWCYTGNPLIPWDYCPISRCEGDTTPTIV
# modifications: N-terminal residue is pyroglutamate (PyrGlu32 by prepro-HGF numbering; Xaa at position 1 of SEQ ID NO:1)
# notes: also called unlabeled HGF/NK4
# Key:
# [1] = target: c-Met/HGF receptor expressed on the lung tumor cell line A549 (UniProt P08581); assay: cell-based or functional assay
# Sequence of c-Met/HGF receptor expressed on the lung tumor cell line A549 (P08581 25-1390 limits assumed): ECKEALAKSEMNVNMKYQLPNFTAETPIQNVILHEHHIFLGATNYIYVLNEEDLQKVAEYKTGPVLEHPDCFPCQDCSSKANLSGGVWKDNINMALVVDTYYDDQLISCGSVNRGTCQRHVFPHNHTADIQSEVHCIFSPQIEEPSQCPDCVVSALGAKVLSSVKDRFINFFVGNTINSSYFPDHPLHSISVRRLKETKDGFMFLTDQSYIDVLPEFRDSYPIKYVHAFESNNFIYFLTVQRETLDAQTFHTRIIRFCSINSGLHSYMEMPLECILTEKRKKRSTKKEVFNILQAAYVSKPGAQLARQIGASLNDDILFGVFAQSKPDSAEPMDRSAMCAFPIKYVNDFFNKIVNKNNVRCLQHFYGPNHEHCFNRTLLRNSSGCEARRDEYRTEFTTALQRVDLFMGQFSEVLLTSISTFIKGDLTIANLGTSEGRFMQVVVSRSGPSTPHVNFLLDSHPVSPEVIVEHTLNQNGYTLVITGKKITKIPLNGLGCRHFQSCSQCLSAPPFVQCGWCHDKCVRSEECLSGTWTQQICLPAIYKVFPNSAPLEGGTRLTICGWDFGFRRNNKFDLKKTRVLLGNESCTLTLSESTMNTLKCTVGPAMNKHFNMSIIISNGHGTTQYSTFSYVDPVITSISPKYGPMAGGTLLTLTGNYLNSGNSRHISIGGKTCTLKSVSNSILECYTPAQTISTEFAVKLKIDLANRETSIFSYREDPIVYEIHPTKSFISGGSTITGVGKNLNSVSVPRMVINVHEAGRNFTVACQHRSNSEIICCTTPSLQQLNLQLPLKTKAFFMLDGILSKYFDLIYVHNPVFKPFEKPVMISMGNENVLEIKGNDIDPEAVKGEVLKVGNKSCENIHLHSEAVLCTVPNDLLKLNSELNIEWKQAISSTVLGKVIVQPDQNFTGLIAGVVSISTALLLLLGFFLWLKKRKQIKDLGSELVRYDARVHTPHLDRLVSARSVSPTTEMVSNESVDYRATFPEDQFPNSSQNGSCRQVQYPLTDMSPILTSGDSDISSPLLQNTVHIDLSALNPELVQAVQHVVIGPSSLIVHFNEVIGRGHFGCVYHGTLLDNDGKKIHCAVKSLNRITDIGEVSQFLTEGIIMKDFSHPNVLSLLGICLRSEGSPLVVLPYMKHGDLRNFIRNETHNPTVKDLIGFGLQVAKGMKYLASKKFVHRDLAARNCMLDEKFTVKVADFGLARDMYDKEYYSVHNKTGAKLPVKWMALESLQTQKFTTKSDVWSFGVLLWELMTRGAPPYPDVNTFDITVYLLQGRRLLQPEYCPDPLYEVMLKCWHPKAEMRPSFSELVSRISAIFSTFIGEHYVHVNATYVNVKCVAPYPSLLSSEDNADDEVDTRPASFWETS
# [2] = target: c-Met/HGF receptor of rat liver plasma membrane (rat) (UniProt P97523); assay: Scatchard analysis, 125I-HGF on rat liver plasma membrane
# [3] = target: c-Met/HGF receptor of rat liver plasma membrane (rat) (UniProt P97523); assay: displacement of 60 pM 125I-HGF from rat liver plasma membrane
# [4] = target: T1, c-Met/HGF receptor of rat liver plasma membrane (rat, UniProt P97523 25-1382); assay: Scatchard analysis, 125I-HGF/NK4 on rat liver plasma membrane
# T1 construct: whole, on cells; The assay used a plasma membrane preparation, not a purified receptor; also called cell surface receptor; HGF receptors
# Description: (§1) Using the HGF/NK4 prepared in Example 1, its binding affinity for the cell surface receptor was investigated. As a control experiment, the binding affinity of HGF for the cell surface receptor was also investigated. In this connection, the HGF/NK4 and HGF were radio-labeled (¹²⁵I-HGF/NK4 and ¹²⁵I-HGF) by the chloramine-T method, and as the cell surface receptor sample, the plasma membrane prepared from the rat liver was used.
# [5] = target: T1, c-Met/HGF receptor of rat liver plasma …; assay: displacement of 60 pM 125I-HGF from rat liver plasma membrane
# Description: as §1
# Then, to investigate whether HGF/NK4 is a competitive antagonist of HGF, the liver plasma membrane (50 μg) was incubated in the presence of ¹²⁵I-HGF alone (60 pM) or a mixture of ¹²⁵I-HGF and a varying amount of unlabeled HGF or unlabeled HGF/NK4.
Molecule,"tyrosine phosphorylation of c-Met in A549 cells (immunoprecipitation with anti-c-Met antibody, Western blot with anti-phosphotyrosine antibody) [1]",Kd [2],IC50 [3],Kd [4],IC50 [5]
"recombinant human hepatocyte growth factor (HGF), heterodimer of alpha-chain and beta-chain (from UniProt P14210 32-494; P14210 495-728) (ligand)",110 pM,0.0645 nM,0.06 nM,,
B1,,,,0.486 nM,0.6 nM
